Measurements from patent publication US20250313644A1 (FUTUREGEN BIOPHARMACEUTICAL BEIJING, published 2025).
Changes are numbered by the printed parent chain.

T1: FASL (UniProt P48023 134-281, limits assumed)
T1 sequence (looked up): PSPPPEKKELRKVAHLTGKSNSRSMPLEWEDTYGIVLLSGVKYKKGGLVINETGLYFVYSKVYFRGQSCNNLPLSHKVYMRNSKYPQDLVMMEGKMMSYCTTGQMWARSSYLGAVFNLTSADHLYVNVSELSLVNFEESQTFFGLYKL

T2: LT-α (UniProt P01374 35-205)
T2 sequence (looked up): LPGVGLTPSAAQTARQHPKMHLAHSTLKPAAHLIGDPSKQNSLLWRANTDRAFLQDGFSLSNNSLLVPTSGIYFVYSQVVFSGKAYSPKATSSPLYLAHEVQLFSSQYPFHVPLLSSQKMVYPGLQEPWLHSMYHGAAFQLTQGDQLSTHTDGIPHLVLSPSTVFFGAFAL

T3: human TL1A (HuTL1A) (human, UniProt O95150 57-251, limits assumed, biotin-labelled in some assays (site not stated))
T3 sequence: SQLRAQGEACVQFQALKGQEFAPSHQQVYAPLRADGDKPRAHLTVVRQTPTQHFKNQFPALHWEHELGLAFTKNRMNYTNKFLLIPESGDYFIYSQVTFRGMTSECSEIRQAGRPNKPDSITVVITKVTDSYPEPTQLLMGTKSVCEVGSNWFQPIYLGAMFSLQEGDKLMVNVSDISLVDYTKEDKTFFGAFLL

T4: endogenous TL1A induced in PBMC by immune complexes (UniProt O95150 72-251, limits assumed)
T4 sequence (looked up): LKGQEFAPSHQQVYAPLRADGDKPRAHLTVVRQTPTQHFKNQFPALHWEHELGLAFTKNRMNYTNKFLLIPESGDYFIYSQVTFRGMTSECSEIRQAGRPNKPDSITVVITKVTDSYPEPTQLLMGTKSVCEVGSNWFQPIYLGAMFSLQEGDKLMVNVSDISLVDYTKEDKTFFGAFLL

B1: M701-3966 (antibody, human IgG1, kappa, L234A L235A, V domains shown)
VH: ELQLQESGPGLVKPSETLSLTCAVSGVSFSDYHWAWIRQPPGKGLEWIGDINHRGHTNYNPSLKSRVTVSIDTSKNQFSLKLSSVTAADTAVYFCARDFPNFIFDYWGQGTLVTVSS
VL: DIQLTQSPGTLSLSPGERATLSCRASQSVSSYLAWYQQKPGQAPRLLIYGASKRATGIPDRFSGSGSGTDFTLTISRLEPEDFAVYYCQQYGDSPLTFGQGTKVEIKR
notes: Fc-engineered IgG1
B2: M701-4007 (antibody, human IgG1, kappa, L234A L235A, V domains shown)
VH: B1 VH with Y106F
VL: B1 VL with S31T
notes: Fc-engineered IgG1

Tests used:
LIGHT [1] = biological target: T5, LIGHT (UniProt O43557 74-240, limits assumed); experiment: ELISA, coated LIGHT, Ab 0.391 nM
Experimental: (§1) In this experiment, ELISA was used to assess the binding ability of monoclonal antibodies to TL1A homologous molecules. Representative members of the TNF ligand superfamily, TNFα, LT-α, LIGHT and FASL, were selected for binding testing. 1 μg/mL of TNFα, LT-α, LIGHT or FASL was coated in a microplate with a carbonate buffer solution at pH=9.6, 100 μL per well, and the microplate was incubated at 4° C. overnight. The microplate was then washed 5 times with PBST, blocked with 300 μL/well of PBS containing 1% BSA, and was incubated at room temperature for 1 hour. After washing 5 times with PBST, about 100 μL each of the M701 monoclonal antibodies and the control antibodies were added to each well, and were incubated at room temperature for 1 hour. After washing 5 times with PBST, 100 μL of HRP-anti-human Fc (Sino Biological) was added to each well, and was incubated at room temperature for 1 hour. After washing 5 times with PBST, 100 μL of colorimetric substrate TMB was added to each well, and color was developed at room temperature for 10 minutes, followed by addition of 1M sulfuric acid to terminate the reaction. OD450 nm was recorded on a microplate reader.

LIGHT [2] = biological target: T5, LIGHT; experiment: ELISA, coated LIGHT, Ab 25 nM
Experimental: as §1

FASL [3] = biological target: T1, FASL; experiment: ELISA, coated FASL
Experimental: as §1

TNFα [4] = biological target: T6, TNFα (UniProt P01375 77-233); experiment: ELISA, coated TNF-α, Ab 6.25 nM
Experimental: as §1

LT-α [5] = biological target: T2, LT-α; experiment: ELISA, coated LT-α, Ab 0.000 nM (blank)
Experimental: as §1

LT-α [6] = biological target: T2, LT-α; experiment: ELISA, coated LT-α, Ab 1.563 nM
Experimental: as §1

LIGHT [7] = biological target: T5, LIGHT; experiment: ELISA, coated LIGHT, Ab 0.000 nM (blank)
Experimental: as §1

LT-α [8] = biological target: T2, LT-α; experiment: ELISA, coated LT-α, Ab 6.25 nM
Experimental: as §1

FASL [9] = biological target: T1, FASL; experiment: ELISA, coated FASL, Ab 0.000 nM (blank)
Experimental: as §1

TNFα [10] = biological target: T6, TNFα; experiment: ELISA, coated TNF-α, Ab 1.563 nM
Experimental: as §1

human TL1A (HuTL1A) [11] = biological target: T3, human TL1A (HuTL1A); experiment: cell-based or functional assay
human TL1A (HuTL1A) [12] = biological target: T3, human TL1A (HuTL1A); experiment: cell-based or functional assay; remark: listed apart in the source
LT-α [13] = biological target: T2, LT-α; experiment: ELISA, coated LT-α, Ab 100 nM
Experimental: as §1

TNFα [14] = biological target: T6, TNFα; experiment: ELISA, coated TNFα
Experimental: as §1

FASL [15] = biological target: T1, FASL; experiment: ELISA, coated FASL, Ab 25 nM
Experimental: as §1

LIGHT [16] = biological target: T5, LIGHT; experiment: ELISA, coated LIGHT, Ab 100 nM
Experimental: as §1

LIGHT [17] = biological target: T5, LIGHT; experiment: ELISA, coated LIGHT, Ab 1.563 nM
Experimental: as §1

human TL1A (HuTL1A) [18] = biological target: T3, human TL1A (HuTL1A); experiment: DLS, antigen and antibody mixed in equal moles
Experimental: 60 μM antigen and antibody was mixed in equal moles, incubated at room temperature for 30 minutes, and then the molecular size was detected using UNCLE or SEC.

[19] = biological target: T4, endogenous TL1A induced in PBMC by …; experiment: cell-based or functional assay

T6 sequence (P01375 77-233 limits assumed): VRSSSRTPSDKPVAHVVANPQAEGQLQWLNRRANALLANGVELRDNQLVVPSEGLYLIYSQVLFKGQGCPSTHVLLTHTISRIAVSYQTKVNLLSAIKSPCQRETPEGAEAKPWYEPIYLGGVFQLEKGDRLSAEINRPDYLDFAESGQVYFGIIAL
T5 sequence (O43557 74-240 limits assumed): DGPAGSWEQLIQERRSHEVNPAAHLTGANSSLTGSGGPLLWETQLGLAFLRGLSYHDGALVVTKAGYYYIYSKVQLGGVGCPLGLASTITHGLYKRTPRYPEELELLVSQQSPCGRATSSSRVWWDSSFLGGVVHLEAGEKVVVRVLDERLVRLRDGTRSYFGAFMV

| Binder | OD450 nm (LIGHT [1]) | OD450 nm (LIGHT [2]) | binding result (FASL [3]) | OD450 nm (TNFα [4]) | OD450 nm (LT-α [5]) | OD450 nm (LT-α [6]) | OD450 nm (LIGHT [7]) | OD450 nm (LT-α [8]) | OD450 nm (FASL [9]) | OD450 nm (TNFα [10]) | IC50 (read off the curve); IFN-γ of human T cells with IL-12, IL-18 and exogenous human TL1A (human TL1A (HuTL1A) [11]) | IC50 (read off the curve); SEAP reporter in HEK293T/DR3-NFκB cells with soluble TL1A, OD655 (human TL1A (HuTL1A) [12]) | OD450 nm (LT-α [13]) | binding result (TNFα [14]) | OD450 nm (FASL [15]) | OD450 nm (LIGHT [16]) | OD450 nm (LIGHT [17]) | Ave Z-dia (nm) of the antigen-antibody complex (human TL1A (HuTL1A) [18]) | IC50 (read off the curve); IFN-γ of PBMC stimulated with immune complex, IL-12 and IL-18 [19] |
| --- | --- | --- | --- | --- | --- | --- | --- | --- | --- | --- | --- | --- | --- | --- | --- | --- | --- | --- | --- |
| B1 | 0.0558 | 0.0674 | no binding (tested: 100 nM) | 0.0511 | 0.0704 | 0.0651 | 0.06 | 0.06 | 0.0692 | 0.0528 | ~300 pM | ~1000 pM | 0.0709 | no binding (tested: 100 nM) | 0.0662 | 0.0876 | 0.0573 | 18.6 nm | – |
| B2 | 0.0534 | 0.063 | no binding (tested: 100 nM) | 0.0553 | 0.0662 | 0.0625 | 0.0568 | 0.0588 | 0.0648 | 0.0588 | ~200 pM | ~1000 pM | 0.0706 | no binding (tested: 100 nM) | 0.0634 | 0.0853 | 0.0568 | 18.7 nm | ~500 pM |
